Measurements reported in patent US9243231B2, “Mutant cytochrome P450 2B6 proteins and uses thereof” (Institut National de la Santé et de la Recherche Médicale …, priority 2011, dated 2016).
“Also recorded” adds a separate entry of the source.

How the values were obtained:
[1] = test system: TC1-Luc2 mouse pulmonary tumour cells; test: In vivo cytotoxicity assay, subcutaneous TC1 tumours in mice treated with CPA; conditions: CPA 140 mg/kg i.p., C57Bl6 mice, FIG. 14
Procedure: To test the capacity of the triple mutant to enhance the response to CPA in vivo, a mouse model was used. Mouse pulmonary tumour cells (TC1-Luc2) were infected with a lentivirus vector carrying the CYP2B6TM-RED construct and injected subcutaneously into C57Bl6 mice. As a control, uninfected TC1 cells-were injected. TC1-Luc2 cells express luciferase, permitting tumour size to be monitored via bioluminescence.
In initial experiments, 10 mice were injected with CYP2B6TM-RED-TC1 cells and 10 were injected with uninfected TC1 cells. Tumour growth was monitored, and when the tumour size reached approximately 400 mm^3 half of the mice were treated with CPA via intraperitoneal injection at 140 mg/kg. untreated mice were sacrificed when tumour volume reached around 1500 mm^3.

[2] = CPA 4-hydroxylase activity in yeast microsomes; format: biochemical; conditions: for Vmax of CPA-4' hydroxylation / Km / CPA hydroxylase activity Vmax: yeast microsomes; for Vmax of CPA-4' hydroxylation / Km: FIG. 9; for Km: read-out: Km of CPA-4' hydroxylation; for CPA hydroxylase activity Vmax: Table 1
Text: CYP2B6 wt or CYP2B6TM alone or in fusion with RED were expressed in the MR) yeast strain, in which yeast NADPH cytochrome P450 reductase was constitutively expressed. The pYeDP60 plasmids were introduced into intact yeast cells based on a refined lithium acetate-mediated protocol as described in Truan et al, 1993, above. Yeast culture conditions were as described in Bellamine A, Gautier J C, Urban P, Pompon D (1994): Chimeras of the human cytochrome P450 1A family produced in yeast. Accumulation in microsomal membranes, enzyme kinetics and stability. Eur J Biochem 225:1005-13. Yeast microsomes were prepared based on the mechanical disruption method using glass beads as described in Bellamine A, Gautier J C, Urban P, Pompon D. (1994): Chimeras of the human cytochrome P450 1A family produced in yeast. Accumulation in microsomal membranes, enzyme kinetics and stability. Eur J Biochem 225:1005-13. The fluorometric determination of yeast microsomal CPA 4-hydroxylase was adapted from a technique described previously (Roy P, Yu […]. (1999): […] Drug Metab Dispos 27:655-66) for a 96-well microplate with several modifications. Incubations were carried out for 1 h at 28° C. in a total volume of 200 μl and included 100 mM sodium phosphate buffer, pH 7.4, 1 mM EDTA, 10 pmol of CYP2B6 wt or CYP2B6TM or CYP2B6TM-RED with different linkers (microsomal P450 content was spectrally determined by the method of Schoene […], von Oldershausen H F. (1972): Determination of drug metabolizing enzymes in needle biopsies of human liver. Eur J Clin Pharmacol 4:65-73) and 10 mM CPA. Reactions were initiated by adding the NADPH-generating system and stopped by the addition of 200 μl of 10% trichloroacetic acid. After centrifugation at 13,000 g and 4° C. for 15 min to pellet the proteins, 300 μl of the supernatant was transferred to a clean test tube containing 160 μl of the fluorescence mixture (6 mg of 3-aminophenol and 6 mg of hydroxylamine hydrochloride freshly dissolved in 1 ml of 1N HCl). […] After cooling to room temperature, fluorescence reading were performed on a Bio-tek FL600 microplate fluorescence reader (excitation at 350 nm and emission at 515 nm). […] Data were analyzed using Prism software (Graph-Pad Software, Inc., San Diego, Calif.) to calculate kinetic parameters (Km, Vmax), with Vmax values expressed as moles of product formed per minute, normalized to the moles of P450 included in each reaction (turnover number expressed as minutes^-1). Data shown were based on duplicate determinations for each data point.

[3] = double mutant, earlier publication; cited from earlier work

Row | Molecule | Vmax of CPA-4' hydroxylation [2] | Km [2] | CPA hydroxylase activity Vmax [2] | also measured
1 | O=P1(N(CCCl)CCCl)NCCCO1 (stereo not drawn) [CPA, cyclophosphamide] |  |  |  | change in tumour volume after CPA, uninfected TC1 tumours [1]: only a modest effect on the uninfected tumour cells and did not produce an overall reduction in tumour volume; also recorded: slowed this rapid increase in uninfected tumour cells but obtained no reduction in overall tumour size
2 | CYP2B6TM: human CYP2B6 triple mutant with substitutions I114V, L199M and V477W (SEQ ID No 1) (protein, listed as Homo sapiens) MELSVLLFLALLTGLLLLLVQRHPNTHDRLPPGPRPLPLLGNLLQMDRRGLLKSFLRFREKYGDVFTVHLGPRPVVMLCGVEAIREALVDKAEAFSGRGKIAMVDPFFRGYGVVFANGNRWKVLRRFSVTTMRDFGMGKRSVEERIQEEAQCLIEELRKSKGALMDPTFLFQSITANIICSIVFGKRFHYQDQEFLKMMNLFYQTFSLISSVFGQLFELFSGFLKYFPGAHRQVYKNLQEINAYIGHSVEKHRETLDPSAPKDLIDTYLLHMEKEKSNAHSEFSHQNLNLNTLSLFFAGTETTSTTLRYGFLLMLKYPHVAERVYREIEQVIGPHRPPELHDRAKMPYTEAVIYEIQRFSDLLPMGVPHIVTQHTSFRGYIIPKDTEVFLILSTALHDPHYFEKPDAFNPDHFLDANGALKKTEAFIPFSLGKRICLGEGIARAELFLFFTTILQNFSMASPVAPEDIDLTPQECGWGKIPPTYQIRFLPR | 107.5 ± 3.4 min⁻¹ | 510 ± 80 µM | 105.5 nmol 4OH-CPA/min/nmol CYP2B6 | affinity for CPA relative to wild-type enzyme ([2]; greater than wild-type): 8 times; Vmax compared with wild-type enzyme ([2]; in words): retaining the same Vmax; efficiency at metabolising CPA into cytotoxic metabolite relative to wild-type ([2]; more efficient than wild-type protein): 10 times; change in tumour volume after CPA, tumours expressing CYP2B6TM-RED [1]: dramatic reductions in tumour size
3 | CYP2B6wt: wild-type human cytochrome P450 2B6, without reductase (protein, UniProt P20813 1-491, looked up) Cytochrome P450 2B6: MELSVLLFLALLTGLLLLLVQRHPNTHDRLPPGPRPLPLLGNLLQMDRRGLLKSFLRFREKYGDVFTVHLGPRPVVMLCGVEAIREALVDKAEAFSGRGKIAMVDPFFRGYGVIFANGNRWKVLRRFSVTTMRDFGMGKRSVEERIQEEAQCLIEELRKSKGALMDPTFLFQSITANIICSIVFGKRFHYQDQEFLKMLNLFYQTFSLISSVFGQLFELFSGFLKYFPGAHRQVYKNLQEINAYIGHSVEKHRETLDPSAPKDLIDTYLLHMEKEKSNAHSEFSHQNLNLNTLSLFFAGTETTSTTLRYGFLLMLKYPHVAERVYREIEQVIGPHRPPELHDRAKMPYTEAVIYEIQRFSDLLPMGVPHIVTQHTSFRGYIIPKDTEVFLILSTALHDPHYFEKPDAFNPDHFLDANGALKKTEAFIPFSLGKRICLGEGIARAELFLFFTTILQNFSMASPVAPEDIDLTPQECGVGKIPPTYQIRFLPR | 107.3 ± 3.74 min⁻¹ | 4330 ± 500 µM | 62.5 nmol 4OH-CPA/min/nmol CYP2B6 | 
4 | I114V/V477W: previously published CYP2B6 double active site mutant (Nguyen et al 2008) (protein, UniProt P20813 1-491, looked up, variant I114V V477W) Cytochrome P450 2B6: MELSVLLFLALLTGLLLLLVQRHPNTHDRLPPGPRPLPLLGNLLQMDRRGLLKSFLRFREKYGDVFTVHLGPRPVVMLCGVEAIREALVDKAEAFSGRGKIAMVDPFFRGYGVVFANGNRWKVLRRFSVTTMRDFGMGKRSVEERIQEEAQCLIEELRKSKGALMDPTFLFQSITANIICSIVFGKRFHYQDQEFLKMLNLFYQTFSLISSVFGQLFELFSGFLKYFPGAHRQVYKNLQEINAYIGHSVEKHRETLDPSAPKDLIDTYLLHMEKEKSNAHSEFSHQNLNLNTLSLFFAGTETTSTTLRYGFLLMLKYPHVAERVYREIEQVIGPHRPPELHDRAKMPYTEAVIYEIQRFSDLLPMGVPHIVTQHTSFRGYIIPKDTEVFLILSTALHDPHYFEKPDAFNPDHFLDANGALKKTEAFIPFSLGKRICLGEGIARAELFLFFTTILQNFSMASPVAPEDIDLTPQECGWGKIPPTYQIRFLPR |  |  |  | CPA-4-hydroxylation efficiency compared to wild-type enzyme [3]: four-fold increase
